Measured values reported in patent EP4725501A1 (Staidson (Beijing) Biopharmaceuticals Co., Ltd., dated 2026).

Assays:
[1] = biological target: T1, human MASP3-His (human, UniProt P48740-2 20-728); test: cell-based or functional assay
T1 sequence (looked up): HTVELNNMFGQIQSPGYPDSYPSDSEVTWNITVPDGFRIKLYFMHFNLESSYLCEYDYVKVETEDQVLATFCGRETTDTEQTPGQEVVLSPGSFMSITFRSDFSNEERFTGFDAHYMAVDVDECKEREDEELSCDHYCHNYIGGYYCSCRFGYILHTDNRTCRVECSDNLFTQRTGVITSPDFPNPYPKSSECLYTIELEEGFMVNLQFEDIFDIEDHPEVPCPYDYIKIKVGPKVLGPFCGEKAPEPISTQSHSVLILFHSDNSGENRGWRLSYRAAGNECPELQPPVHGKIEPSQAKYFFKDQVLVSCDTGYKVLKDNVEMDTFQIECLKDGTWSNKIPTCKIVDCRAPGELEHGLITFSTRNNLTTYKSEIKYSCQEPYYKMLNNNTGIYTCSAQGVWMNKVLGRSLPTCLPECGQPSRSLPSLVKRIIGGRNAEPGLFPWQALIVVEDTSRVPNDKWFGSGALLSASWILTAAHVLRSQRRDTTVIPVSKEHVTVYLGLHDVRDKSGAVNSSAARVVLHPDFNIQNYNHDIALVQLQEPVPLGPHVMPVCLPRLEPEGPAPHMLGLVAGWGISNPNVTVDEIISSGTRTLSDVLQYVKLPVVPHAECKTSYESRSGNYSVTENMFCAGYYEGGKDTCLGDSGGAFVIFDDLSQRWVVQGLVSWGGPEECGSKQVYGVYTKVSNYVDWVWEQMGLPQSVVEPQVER

[2] = biological target: T1, human MASP3-His; test: ELISA; antigen coated 0.1 ug/well, antibody titrated, goat anti-human IgG-HRP
[3] = biological target: T2, mouse MASP3-His (mouse, UniProt P98064-2 25-733); test: as above
T2 construct: not shown: His tag added to the terminal
T2 sequence (looked up): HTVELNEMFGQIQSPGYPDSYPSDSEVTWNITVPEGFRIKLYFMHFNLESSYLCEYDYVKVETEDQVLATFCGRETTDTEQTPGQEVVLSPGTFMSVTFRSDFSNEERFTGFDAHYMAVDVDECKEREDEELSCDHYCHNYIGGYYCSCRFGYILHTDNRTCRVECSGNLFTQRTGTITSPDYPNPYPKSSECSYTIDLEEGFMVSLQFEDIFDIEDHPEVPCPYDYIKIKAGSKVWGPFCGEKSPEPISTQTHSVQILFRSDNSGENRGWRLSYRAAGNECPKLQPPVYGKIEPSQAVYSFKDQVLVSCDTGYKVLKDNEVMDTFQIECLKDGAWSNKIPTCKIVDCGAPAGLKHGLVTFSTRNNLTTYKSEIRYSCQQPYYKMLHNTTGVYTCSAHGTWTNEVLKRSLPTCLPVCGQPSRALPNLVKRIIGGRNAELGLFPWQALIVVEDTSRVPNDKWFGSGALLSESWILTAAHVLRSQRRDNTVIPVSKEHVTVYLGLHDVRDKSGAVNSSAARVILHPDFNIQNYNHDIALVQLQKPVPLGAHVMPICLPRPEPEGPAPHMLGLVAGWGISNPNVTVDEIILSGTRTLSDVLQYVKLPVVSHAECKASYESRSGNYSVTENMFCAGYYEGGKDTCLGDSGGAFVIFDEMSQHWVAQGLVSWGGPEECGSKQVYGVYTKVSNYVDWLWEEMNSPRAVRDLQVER

[4] = biological target: T3, monkey MASP3-His (monkey); test: as above
T3 construct: monkey species not further specified

[5] = biological target: T1, human MASP3-His; test: cell-based or functional assay; remark: listed apart in the source
[6] = biological target: T4, MASP3 in Factor D depleted human plasma (human, UniProt P48740-2 20-728); test: cell-based or functional assay
T4 sequence (looked up): T1 sequence (looked up)

- IC50 (nM), inhibition of MASP3 enzyme activity (cleavage of fluorescent tripeptide Boc-Val-Pro-Arg-AMC) [1]: 38.6 nM
- EC50 [2]: 0.04 nM
- EC50 [3]: 0.08 nM
- EC50 [4]: 0.24 nM
- IC50 (nM), inhibition of MASP3 enzyme activity (fluorescent tripeptide cleavage) [5]: 21.4 nM
B1: M3-K2 (antibody, V domains shown)
VH: EVQLQQSGAELVKPGASVKISCKASGYTFTGKWIEWVKQRPGHGLEWIGEILPGSGSTDYNERFKDKATFTADTSSNTAYMQLTSLTPDDSATYYCVRSEDLWGSGTTLTVSS
VL: DIVLTQSPSSLAVSAGEKVTMTCKSSQNLFNSRTRKNYLAWFQQKPGQSPKLLIYWASTRESGVPDRFTGSGSGTDFTLTISSVQAEDLAVYYCKQSYIPFTFGGGTKLEIK
notes: also called anti-MASP3 chimeric antibody M3-K2
- Inhibit hemolysis IC50 [6]: 1.31 nM
